The values below come from US8809529B2, “Imidazo[1,2-α]pyrazine derivatives” (Promega Corporation, priority 2010, dated 2014).

Where only a bound is given, the exact number is not on record here.

For data set [1], the system named is HEK293 cells. The data set can be described thus: Brightness on a per mole basis in HEK293 cells (HT7 fusions). It counts as cell-based, human.
The test system of data set [2] is HEK293 cells. The data set can be described thus: Stability of 9B8 and V2 in HEK293 cells. It counts as cell-based, human. The note with it: HEK293 cells lysed in assay reagent, 20 μM PBI-3939. On the procedure:
The variants 9B8 and V2 (9B8+K33N+T39T+K43R+Y68D) were also screened in HEK293 cells to determine their stability. The variants were cloned into pF4Ag and transfected into HEK293 cells (15,000 cells/well) as previously described. After transfection, the cells were lysed in assay reagent (as previously described; no PBI-3939), and luminescence measured using the assay reagent with 20 μM PBI-3939. […] This is consistent with the half-life seen for these variants in E. coli (Table 26).

In another data set the test system is CRE. The data set can be described thus: CRE transcriptional reporter, bulk transfection, HEK293 cells. It counts as cell-based, human. The method, then:
The transcriptional reporter containing […] and 9B8 opt-P was used in the bulk transfection of HeLa cells
HEK293, NIH3T3, or HeLa cells were plated to a single well of a 6-well tissue culture plate the day before transfection at a density of 4.5×10^5 cells/well in 3 mL complete medium (DMEM+10% FBS+1×NEAA+1× sodium pyruvate) for HEK293 cells, 3×10^5 cellsNvell in 3 mL complete medium (DMEM+10% fetal calf serum (FCS)+1×NEAA+1× sodium pyruvate) for NIH3T3 cells, or 9.9×10^5 cells/well in 3 mL complete medium (DMEM+10% FBS+1×NEAA) for HeLa cells. Cells were grown overnight at 37° C.
3,300 ng of reporter plasmid DNA in 155 4 OPTI-MEM® was mixed with 9.9 μL FUGENE® HD transfection reagent, vortexed briefly, and incubated at room temperature for 10 min. The CRE transcriptional reporters were used to transfect HEK293 and NIH3T3 cells. The HRE transcriptional reporters were used to transfect HeLa cells. The reporter mixture was added to cells and mixed by gentle rocking followed by incubation at 37° C. for 6 hrs (HEK293 and NIH3T3) or 3 hrs (HeLa). Cells were then trypsinized and resuspended in medium (DMEM+10% FBS+1×NEAA+1× sodium pyruvate for HEK293 cells, DMEM+10% FCS+1×NEAA+1× sodium pyruvate for NIH3T3 cells, or DMEM+10% FBS+1×NEAA for HeLa cells), followed by plating to the individual wells of a 96-well plate (20,000 cells/100 μL for HEK293, 10,000 cells/100 4 for NIH3T3, or […] for HeLa) and incubated at 37° C. overnight.
FSK (CRE stimulator) or 17-AAG (HRE stimulator; 17-Allylamino-demethoxy geldanamycin) in OPTI-MEM® was added to the cells (10 nM or 10 μM final concentration for FSK; 1 nM or 1 μM final concentration for 17-AAG) and incubated at 37° C. for 4 hrs (FSK) or 6 hrs (17-AAG). Plates were removed from the incubator and allowed to equilibrate to room temperature for 25 min. Cells were lysed with 100 μL lytic reagent as described above for the forward transfection. Luminescence was measured on a GLOMAX® Luminometer.

Data set [3] concerns antioxidant response element (ARE). The data set can be described thus: ARE transcriptional reporter, reverse transfection, HEK293 cells. It counts as cell-based, human. The note with it: for baseline: 24 h, 100 ng DNA. The method, then: HEK293 cells were trypsinized (T75 flask, 3 mL trypsin) and resuspended in […] (approximately 8.9×10^6 total cells) in medium containing DMEM+10% FBS+1×NEAA. Each transcriptional reporter was prepared for transfection by mixing 1.2 mL OPTI-MEM®, 12 μL transcription reporter DNA (100 ng) and 36 μL FUGENE® HD transfection reagent together and incubated at room temperature for 35 min. Following incubation, 624 μL of the transfection/reporter DNA mixture was added to 12 mL of cell suspension and mixed by inversion. After mixing, 100 μL of the cell/DNA mixture was added to wells of a 96-well plate (2 constructs/plate). The cells were incubated at 37° C. for 22 hrs. Tert-butylhydroquinone (a Nrf2 stabilizer; tBHQ; 1 μM (“baseline”) or 20 μM) or sulphoraphane, (an organosulfer antioxidant known to activate Nrf2; 1 μM (“baseline”) or 20 μM) in OPTI-MEM® was added to each well and incubated at 37° C. for 24 hrs. Cells were lysed with 100 μL lytic reagent as described above for the forward transfection. Luminescence was measured on a GLOMAX® Luminometer.

The test system is the same in data set [4]. The description is as above. It counts as cell-based, human. The note with it: 24 h, 100 ng DNA.
Another data set addresses T1, caspase-3 (Homo sapiens, UniProt P42574).
T1 sequence (P42574 29-175 limits assumed): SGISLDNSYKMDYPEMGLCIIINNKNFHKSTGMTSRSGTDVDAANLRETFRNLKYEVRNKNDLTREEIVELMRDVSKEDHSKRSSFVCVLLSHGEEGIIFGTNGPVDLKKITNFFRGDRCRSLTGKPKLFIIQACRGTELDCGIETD
T1 sequence (P42574 176-277 limits assumed): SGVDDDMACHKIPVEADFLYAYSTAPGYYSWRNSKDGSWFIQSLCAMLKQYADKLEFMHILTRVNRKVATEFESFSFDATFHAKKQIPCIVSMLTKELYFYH
The data set can be described thus: Caspase-3 bioluminescent assay with 9B8 opt and z-DEVD-coelenterazine-h. It counts as biochemical. The method, then: 1. […] Purified caspase-3 enzyme was mixed with an E. coli lysate sample expressing the variant 9B8 opt, which was prepared as described in Example 27, and diluted 10-fold in a buffer containing 100 mM MES pH 6.0, 1 mM CDTA, 150 mM KCl, 35 mM thiourea, 2 mM DTT, 0.25% TERGITOL® NP-9 (v/v), 0.025% MAZU® DF 204, with or without 23.5 μM z-DEVD-coelenterazine-h in 100 mM HEPES pH 7.5 (“DEVD” disclosed as SEQ ID NO: 581). The caspase-3 enzyme was incubated with the lysate sample for 3 hrs at room temperature, and luminescence detected on a Turner MODULUS™ luminometer at various time points. A sample containing only bacterial lysate and a sample containing only caspase-3 were used as controls. Three replicates were used.

B1: 9B8: IV variant with Q18L, F68Y, L72Q, M75K; in Tables 12, 22, 23, 26, 27 “9B8” stands for 9B8 opt (protein)
chain: MVFTLEDFVGDWRQTAGYNLDQVLEQGGLSSLFQKLGVSVTPIQKIVLSGENGLKIDIHVIIPYEGLSGYQMGQIEKIFKVVYPVDDHHFKVILHYGTLVIDGVTPNMIDYFGRPYEGIAVFDGKKITVTGTLWNGNKIIDERLINPDGSLLFRVTINGVTGWRLCERILA
For B1, in the data set on HEK293 cells [1], the “brightness relative to Luc2” value is reported as “approximately 15 fold” and the “brightness relative to hRL” value is listed as over 100 fold. In the data set with HEK293 cells [2], the half-life was 5.2 h.

B2: 9B8 opt: codon optimized version of the 9B8 variant (protein)
chain: B1 chain
With B2, the baseline in the data set on CRE (HEK293, 10 nM FSK, 4 h) was 39,700,000; in data set [3] (1 μM sulphoraphane) it was 15,600,000; in data set [3] (1 μM tBHQ), 15,100,000. The “RLU (10 mM FSK)” value in the data set with CRE (HEK293, 4 h) was 654,000,000 RLU. The Response in the data set on CRE (HEK293, FSK) is given as 16; in data set [3] (sulphoraphane) it was 5.8; in data set [3] (tBHQ) it was 8. The “RLU (20 μM sulphoraphane)” value in data set [4] is reported as 89,600,000 RLU. The “RLU (20 μM tBHQ)” value in data set [4] is recorded as 120,000,000 RLU. Further, the “+ caspase (RLU)” value is 25,411 RLU in the data set with caspase-3 (5 min, z-DEVD-coelenterazine-h); 36,906 RLU with caspase-3 (15.3 min); 41,854 RLU in the data set with caspase-3 (29.9 min); 43,370 RLU with caspase-3 (60.9 min); 42,448 RLU with caspase-3 (190.3 min). The “no caspase (RLU)” value with caspase-3 (5 min, z-DEVD-coelenterazine-h) was 26,023 RLU; with caspase-3 (15.3 min), 7,707 RLU; with caspase-3 (29.9 min), 4,013 RLU; with caspase-3 (60.9 min), 2,305 RLU; in the data set with caspase-3 (190.3 min), 1,155 RLU.
